Source: patent publication US20190367619A1 (ARGENX, published 2019)
Substitutions are numbered along the chain they refer to.

T1: human galectin-10 as coated in ELISA (soluble galectin-10; tag not given) (human, UniProt Q05315 1-142, limits assumed)
T1 construct: also called coated galectin-10; Gal10
T1 sequence: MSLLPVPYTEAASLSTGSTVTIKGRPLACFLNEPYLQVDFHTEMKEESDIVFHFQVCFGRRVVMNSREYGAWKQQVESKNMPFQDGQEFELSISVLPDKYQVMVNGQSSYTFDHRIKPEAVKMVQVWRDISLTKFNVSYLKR

T2: cynomolgus galectin-10-His, WGS isoform (cynomolgus)
T2 construct: not shown: His tag
T2 chain: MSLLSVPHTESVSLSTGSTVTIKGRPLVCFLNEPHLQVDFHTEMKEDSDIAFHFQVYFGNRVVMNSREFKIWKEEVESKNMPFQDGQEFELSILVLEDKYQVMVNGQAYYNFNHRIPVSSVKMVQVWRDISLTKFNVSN

T3: cynomolgus galectin-10-His, YRT isoform (cynomolgus)
T3 construct: not shown: His tag
T3 chain: T2 chain with K23E, G24A, L31F, F69Y, K70R, I71T, S92R

T4: human galectin-10-His (human)
T4 construct: Whether the last M of the tag is the start Met of galectin-10 is not clear; also called human Gal10-HIS; humanGal10-His
T4 chain: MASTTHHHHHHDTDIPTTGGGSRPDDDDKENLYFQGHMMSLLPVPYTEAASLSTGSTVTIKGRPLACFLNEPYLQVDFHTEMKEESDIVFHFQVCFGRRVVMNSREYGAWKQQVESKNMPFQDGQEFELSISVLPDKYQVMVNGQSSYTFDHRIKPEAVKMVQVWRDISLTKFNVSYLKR

B1: scFv 4G05 (periplasmic extract, Myc-tagged) (scFv, not shown: small tags and cut ends)
scFv: QLQVVESGGGLVQTGGSLTLSCTTSGFTFSRYWMIWVRQAPGKGLEWVSSIYNDGGNTYYADSVKGRFTISRDNSENTLYLQMNSLKSEDTAVYYCAKLKAAYYGMDYWGKGTLVTVSSGGGGSGGGGSGGGGSSSALTQPSAVSVSLGQTARITCQGANLGRYYGIWYQQKPGQAPVQVIYGDSNRPSGIPERFSGSSSGGTATLTISGAQAEDEADYYCQSYESSTSPVFGGGTHLTVL
B2: scFv 1A12 (periplasmic extract, Myc-tagged) (scFv, not shown: small tags and cut ends)
scFv: QVQLVESGGGLVQPGGSLRVSCAASGFTFSSYYMSWVRQAPGKGLEWVSAINSGGGSTYYADSVKGRFTISRDNAKNTLYLQMNSLKSEDTAVYYCVQNGGIWSFGSWGQGTQVTVSSGGGGSGGGGSGGGGSSSALTQPSAISVSLGQTARITCQGGNFGYYYVSWYQQKPGQAPVQVIYGDSNRPSGIPERFSGSSSGGTATLTISGAQAEDEADYYCLSYESSDYPVFGGGTHLTVL
B3: scFv 2E11 (periplasmic extract, Myc-tagged) (scFv, not shown: small tags and cut ends)
scFv: EVQLVESGGGLVQPGGSLRLSCAASGFTFSSYAMSWVRQAPGKGLEWVSPINSGSDSASYVDSVKGRFTISRDNAKNTLYLQMNSLKPEDTAVYYCAKARTSVVAGGMDYWGKGTLVTVSSGGGGSGGGGSGGGGSQSALTQPSAVSVSLGQTARITCQGGKFGSYYVSWYQQKPGQAPVMVIYKDNERPSGIPERFSGSSSGSTSTLTISGAQAEDEGTYYCQSGSSSDNIVFGGGTELTVF
B4: scFv 4B10 (periplasmic extract, Myc-tagged) (scFv, not shown: small tags and cut ends)
scFv: QLQLVESGGGLVQPGGSLRLSCAASGFTFSNYWMYWVRQAPGKGLEWVSAIDVGGGTTDYAGSVKGRFTISRDNTKSTVYLQMNTLKPEDTALYYCLRGGSYYGGMDYWGKGTLVTVSSGGGGSGGGGSGGGGSQSALTQPSAVSVSLGQTARITCQGAKLGRYYGIWYQQKPGQAPVQVIYGDSNRPSGIPERFSGSSSGGTATLTISGAQAEDEADYYCQSYESSTSPVFGGGTHLTVL
B5: scFv 3A03 (periplasmic extract, Myc-tagged) (scFv, not shown: small tags and cut ends)
scFv: QVQLVESGGGLVQPGGSLRLSCATSGFTFSVYAMSWVRQAPGKGLEWVADINTSGDSTTYADSVKGRFTISRDNAKNTLYLQMNSLKPEDTAVYYCANRYTQERGQGTQVTVSSGGGGSGGGGSGGGGSDVVLTQTPGSLSVVPGEAASISCKPGRTLVHTDGRTYLYWLQQKPGQRPQLLIYQVSNRGSGVPDRFTGSGSGTDFTLKISGVKAEDAGVYYCAQATYYPLTFGSGTRLEIK
B6: scFv 4H10 (periplasmic extract, Myc-tagged) (scFv, not shown: small tags and cut ends)
scFv: QVQLVESGGGLVQPGGSLRLSCAASGFTFDDYAMSWVRQAPGKGLEWVSAISWNGGSTYYAESMKGRFTISRDNAKNTLYLQMNSLKSEDAAVYYCAKDLSASGSYYHTFGSWGQGTQVTVSSGGGGSGGGGSGGGGSQAGLTQPPSVAGTLGKTVTISCAGTSSDVGYGDYVSWYQHIPGTAPKLLIYKVKTRASGIPDRFSGSKSGNTASLTISGLQSGDESDYYCASYKNGGTAVFGGGTHLTVL
B7: scFv 2B11 (periplasmic extract, Myc-tagged) (scFv, not shown: small tags and cut ends)
scFv: QVQLQESGPGLVKPSQTLSLTCTVSGGSITTNYYYWSWIRQPPGKGLEWMGAIAYSGSTYYSPSLKSRTSISRDTSKNQFTLQLSSVTPEDTAVYYCARAPYGISREYDYWGQGTQVTVSSGGGGSGGGGSGGGGSHSAVTQPSAVSVSLGQTARITCQGGKFGRYYASWYQQKPGQAPVLVIYKDSERPSGIPERFSGSSSGDTATLSISGAQAEDEADYFCQSGRSSDNAVFGGGTHLTVL
B8: scFv 6F11 (periplasmic extract, Myc-tagged) (scFv, not shown: small tags and cut ends)
scFv: QVQRQESGPGLVKPSQTLSVTCTVSGGSITTGPYSWSWIRQPPGKGLEWIGYIGYSGSTYYSPSLKSRTSISRDTSNNQFSLQLSSVTPEDTAVYYCARSRSSPTTFGMDYWGKGTLVTVSSGGGGSGGGGSGGGGSSSALTQPSAVSVSLGQTARITCQGGDFGRYYVAWYTQKPGQAPVLVIYQDSERPSGIPERFSGSSSGDTATLTISGAQAEDEAEYYCQSGISSDNIVFGGGTHLTVL
notes: also called 6F011
B9: VHH clone 13A05 (VHH)
VHH: QVQLVESGGGLVQAGGSLRLSCAASSSSYSMSWFRQAPGKEREFVAIISWSGGTYYDDSVKGRFTVSRDNAKNTVYLQMNSLKPEDTAVYYCAAGTQFSFSYREYDYWGQGTQVTVSS
notes: Purified VHH-Myc-His from E. coli; not shown: Myc and His tags of the phagemid vector
B10: VHH clone 13C06 (VHH)
VHH: B9 VHH with V2L, S32G, I47T, T54F, Q97R, D106H
notes: as for B9
B11: VHH clone 14F10 (VHH)
VHH: EVQLVESGGGLVQAGDSLRLSCAASGRTFSGYAVGWFRQAPGKEREFVTIISWNGGTHYADSVKGRFAISRDNAKNTVYLQMNNLKPEDTAVYYCAVSPKYYFSPETYNYWGQGTQVTVSS
notes: as for B9
B12: VHH clone 13H07 (VHH)
VHH: QLQLVESGGGLVQAGGSLRLSCVASGRTFSTYAMDWFRQAPGKEREFVAAISWHSAIYYADAVKGRFTISRDNGKNTMYLQMNNLKPEDTAVYFCAAALRYRFNPSAMEYWGKGTLVTVSS
notes: as for B9
B13: VHH clone 14E10 (VHH)
VHH: ELQLVESGGGLVQAGGSLRLSCAASEGTFRPYAMGWFRQAPRKEREFVAVISLSGAYTYNVNAVKGRFTISRDNAKNTVYLQMNSLTPEDTAIYYCGASRTYYRTDESTYEYWGQGTQVTVSS
notes: as for B9
B14: VHH clone 13E07 (VHH)
VHH: ELQVVESGGGLVQAGDSLRLSCAVSGRTFSSYHMMWFRQAPGKEREFVAAIAWRGGTYCANSVKGRCTISRDNAKDTVYLQMNSLKPEDTAVYFCAASLRYVFDPSAMDYWGKGTLVTVSS
notes: as for B9
B15: VHH clone 13D12 (VHH)
VHH: B14 VHH with E1Q, V4L, V24A, I51L, K75Q, L99R, G112A
notes: as for B9
B16: VHH clone 14E02 (VHH)
VHH: QVQLVESGGGLAQAGGSLRLSCVASGRAAGTYSMAWFRQAPGKEREFVAAITWAGGYTYGADSEKGRFTISRDNAKNTVYLQMNSLKPEDTAVYSCAGGRLFTSQSSAYQYWGQGTQVTVSS
notes: as for B9
B17: VHH clone 13C10 (VHH)
VHH: QLQLVESGGGLVQAGGSLKLSCAASGRTFNPYTMGWFRQAPGKEREFVAVVSSGGGTYYANSVKGRFTISRDNAKATVYLQMNSLKPEDTAVYYCAAGSIFRWSPMSYDYWGQGTQVTVSS
notes: as for B9
B18: VHH clone 13C07 (VHH)
VHH: QLQVVESGGGLVQAGGSLRLSCAASSSAYSMAWFRQAPGKEREFVAAITWSGGSHHDDSVKGRFTISRDGAKNTVYLQMNSLKPEDTAVYYCAVGTLYSFSYRDYDYWGQGTQVTVSS
notes: as for B9
B19: VHH clone 13G12 (VHH)
VHH: B18 VHH with A32G, A47V, T49S, H56Y, S101R
notes: as for B9

target: T1, human galectin-10 as coated in ELISA …; assay: ELISA, scFv periplasmic extract on coated soluble galectin-10, anti-Myc-HRP
Experimental: In order to test the binding capacity of the scFvs to galectin-10, an ELISA binding assay was established. Briefly, a Maxisorp plate was coated with soluble galectin-10 (1 μg/mL), then blocked with casein, before being incubated with the periplasmic extract (dilution 1/5 in PBS) containing the scFv-Myc. Detection of the binder was carried out with an anti-Myc-HRP antibody. Absorbance was measured at 450 nm (reference at 620 nm) with Tecan instrument. A significant number of galectin-10 scFv binders were isolated after the second round of selection (45-87% of binders).

First: B1
Second: B2
The “PERI-ELISA binding (OD values)” value of the first is higher: 3.8 OD for the first, 2.13 OD for the second.

First: B3
Second: B4
The “PERI-ELISA binding (OD values)” value of the first is higher: 3.51 OD for the first, 2.44 OD for the second.

First: B5
Second: B6
The “PERI-ELISA binding (OD values)” value of the first is lower: 3.4 OD for the first, 3.48 OD for the second.

First: B7
Second: B8
The “PERI-ELISA binding (OD values)” value of the first is higher: 3.79 OD for the first, 3.76 OD for the second.

Target: T2, cynomolgus galectin-10-His, WGS isoform
Assay: ELISA, Gal10-His coated at 1 ug/mL, VHH titrated, anti-Myc-HRP
Experimental: (§1) The binding capacity of the 15 VHH clones was analysed by ELISA. Briefly, a Maxisorp plate was coated overnight with human or cynomolgus WGS or YRT isoforms galectin-10-His at 1 μg/mL and blocked with PBS 1% casein, before being incubated with a serial dilution of the VHH (from 4 μM, dilution 1/3, 12 points of dilutions). […] Absorbance was measured at 450 nm (reference at 620 nm) with Tecan instrument. Finally, the raw data (OD values) were plotted on GraphPad Prism 7.01. […] As a positive control, clone 1D06 from the previous human specific panel was included.

First: B9
Second: B10
The “Bmax (OD values)” value of the first is lower: 2.7 OD for the first, 2.9 OD for the second.

First: B11
Second: B12
The “Bmax (OD values)” value of the first is lower: 2.6 OD for the first, 2.7 OD for the second.

First: B13
Second: B14
The “Bmax (OD values)” value of the first is lower: 1.4 OD for the first, 2.3 OD for the second.

Compared with B15, B16 is higher in “Bmax (OD values)” value: 1.3 OD for the first, 1.8 OD for the second.

Going from B17 to B18, the “Bmax (OD values)” value rises from 2.3 OD to 2.9 OD.

With B19 the “Bmax (OD values)” value was 2.9 OD.

Compared with B9, B10 is 7.6-fold lower in EC50: 77.8 nM for the first, 10.3 nM for the second.

Going from B11 to B12, the EC50 falls from 60.4 nM to 15.6 nM (3.9-fold).

Going from B14 to B18, the EC50 falls from 371 nM to 7.1 nM (52-fold).

B19 gave an EC50 of 11.8 nM.

Target: T3, cynomolgus galectin-10-His, YRT isoform
Assay: as above
Experimental: as §1

B9 and B10 are the same in “Bmax (OD values)” value: 2.9 OD for the first, 2.9 OD for the second.

First: B11
Second: B12
The “Bmax (OD values)” value of the first is lower: 3 OD for the first, 3.1 OD for the second.

Compared with B13, B14 is lower in “Bmax (OD values)” value: 2.7 OD for the first, 2.4 OD for the second.

Going from B15 to B16, the “Bmax (OD values)” value falls from 2.4 OD to 2.1 OD.

Going from B17 to B18, the “Bmax (OD values)” value rises from 2.7 OD to 2.8 OD.

In the case of B19, the “Bmax (OD values)” value is reported as 3.1 OD.

Going from B9 to B10, the EC50 falls from 66.3 nM to 16.2 nM (4.1-fold).

Going from B11 to B12, the EC50 falls from 3 nM to 1.3 nM (2.3-fold).

Compared with B13, B15 is 7.5-fold higher in EC50: 15.8 nM for the first, 119 nM for the second. The first is the more potent here.

First: B17
Second: B18
The EC50 of the first is 5.6-fold higher: 186 nM for the first, 33.2 nM for the second.

For B19, the EC50 was 3.1 nM.

Target: T4, human galectin-10-His
Assay: as above
Experimental: as §1

Compared with B9, B10 is higher in “Bmax (OD values)” value: 1.8 OD for the first, 2.8 OD for the second.

Compared with B11, B12 is higher in “Bmax (OD values)” value: 0.5 OD for the first, 1.5 OD for the second.

Going from B13 to B14, the “Bmax (OD values)” value rises from 0.5 OD to 1.1 OD.

First: B15
Second: B16
The “Bmax (OD values)” value of the first is higher: 0.8 OD for the first, 0.7 OD for the second.

Going from B17 to B18, the “Bmax (OD values)” value rises from 1 OD to 1.3 OD.

For B19, the “Bmax (OD values)” value was 1.6 OD.

First: B9
Second: B10
The EC50 of the first is 2.5-fold higher: 69.7 nM for the first, 27.5 nM for the second. The second is the more potent here.

Compared with B12, B18 is 1.7-fold lower in EC50: 180 nM for the first, 107 nM for the second.

For B19, the EC50 was 141 nM.
